# B1: Lon protease homolog, mitochondrial (Homo sapiens), P36776-1 (parent)
# chain: MAASTGYVRLWGAARCWVLRRPMLAAAGGRVPTAAGAWLLRGQRTCDASPPWALWGRGPAIGGQWRGFWEASSRGGGAFSGGEDASEGGAEEGAGGAGGSAGAGEGPVITALTPMTIPDVFPHLPLIAITRNPVFPRFIKIIEVKNKKLVELLRRKVRLAQPYVGVFLKRDDSNESDVVESLDEIYHTGTFAQIHEMQDLGDKLRMIVMGHRRVHISRQLEVEPEEPEAENKHKPRRKSKRGKKEAEDELSARHPAELAMEPTPELPAEVLMVEVENVVHEDFQVTEEVKALTAEIVKTIRDIIALNPLYRESVLQMMQAGQRVVDNPIYLSDMGAALTGAESHELQDVLEETNIPKRLYKALSLLKKEFELSKLQQRLGREVEEKIKQTHRKYLLQEQLKIIKKELGLEKDDKDAIEEKFRERLKELVVPKHVMDVVDEELSKLGLLDNHSSEFNVTRNYLDWLTSIPWGKYSNENLDLARAQAVLEEDHYGMEDVKKRILEFIAVSQLRGSTQGKILCFYGPPGVGKTSIARSIARALNREYFRFSVGGMTDVAEIKGHRRTYVGAMPGKIIQCLKKTKTENPLILIDEVDKIGRGYQGDPSSALLELLDPEQNANFLDHYLDVPVDLSKVLFICTANVTDTIPEPLRDRMEMINVSGYVAQEKLAIAERYLVPQARALCGLDESKAKLSSDVLTLLIKQYCRESGVRNLQKQVEKVLRKSAYKIVSGEAESVEVTPENLQDFVGKPVFTVERMYDVTPPGVVMGLAWTAMGGSTLFVETSLRRPQDKDAKGDKDGSLEVTGQLGEVMKESARIAYTFARAFLMQHAPANDYLVTSHIHLHVPEGATPKDGPSAGCTIVTALLSLAMGRPVRQNLAMTGEVSLTGKILPVGGIKEKTIAAKRAGVTCIVLPAENKKDFYDLAAFITEGLEVHFVEHYREIFDIAFPDEQAEALAVER
# partner: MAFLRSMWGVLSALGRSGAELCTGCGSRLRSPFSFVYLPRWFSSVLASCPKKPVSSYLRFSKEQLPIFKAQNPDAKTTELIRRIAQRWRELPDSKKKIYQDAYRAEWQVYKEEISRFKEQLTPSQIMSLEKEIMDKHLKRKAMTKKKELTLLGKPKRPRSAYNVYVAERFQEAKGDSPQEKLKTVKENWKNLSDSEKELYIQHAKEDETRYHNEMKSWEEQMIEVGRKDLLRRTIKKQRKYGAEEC
# Variants of: B1
# Conditions: with tfam_human TFAM
row,effect of a mutation on the interaction,Variant
1,with no effect,R721G
2,with no effect,P676S
